Here are results for 1 protein from paper doi:10.1101/2020.10.16.20213991 (medRxiv, 2020).

The series deals with the molecule itself. Briefly: SEC. (In gel filtration, larger molecules generally elute earlier.)

B1: cowpea chlorotic mottle virus (CCMV) coat protein (natural protein)
chain: MSTVGTGKLTRAQRRAAARKNKRNTRVVQPVIVEPIASGQGKAIKAWTGYSVSKWTASCAAAEAKVTSAITISLPNELSSERNKQLKVGRVLLWLGLLPSVSGTVKSCVTETQTTAAASFQVALAVADNSKDVVAAMYPEAFKGITLEQLTADLTIYLYSSAALTEGDVIVHLEVEHVRPTFDDSFTPVY
Regarding B1, the binding result was “binds”.
